According to article PMC8047137, “Smyd1 Orchestrates Early Heart Development Through Positive and Negative Gene Regulation” (Frontiers in Cell and Developmental Biology, 2021):

Biological target: V5-tagged ASH2L (absent small homeotic-2-like protein) (mouse, UniProt Q91X20 1-623)
Experiment: cell-based or functional assay

V5-tagged ASH2L (absent small homeotic-2-like protein), sequence (Q91X20 whole entry): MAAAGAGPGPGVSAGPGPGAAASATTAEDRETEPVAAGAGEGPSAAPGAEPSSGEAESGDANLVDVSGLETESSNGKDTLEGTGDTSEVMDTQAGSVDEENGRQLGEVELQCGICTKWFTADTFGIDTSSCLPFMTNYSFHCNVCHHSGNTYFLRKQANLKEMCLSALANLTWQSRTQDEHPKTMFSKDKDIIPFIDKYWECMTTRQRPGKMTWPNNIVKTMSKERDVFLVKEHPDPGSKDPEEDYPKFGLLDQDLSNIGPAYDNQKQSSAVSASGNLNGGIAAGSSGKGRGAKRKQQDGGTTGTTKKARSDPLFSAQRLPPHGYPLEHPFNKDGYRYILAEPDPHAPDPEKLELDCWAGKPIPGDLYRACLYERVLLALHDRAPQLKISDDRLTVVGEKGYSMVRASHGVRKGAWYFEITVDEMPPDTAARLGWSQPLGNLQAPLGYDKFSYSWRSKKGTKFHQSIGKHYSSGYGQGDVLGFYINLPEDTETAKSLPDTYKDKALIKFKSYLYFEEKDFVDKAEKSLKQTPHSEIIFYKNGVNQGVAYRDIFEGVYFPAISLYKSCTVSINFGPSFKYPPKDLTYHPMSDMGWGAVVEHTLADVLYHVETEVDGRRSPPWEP

Isl1 promoter (pLG3-Isl1-WT) luciferase reporter activity in C2C12 cells, ASH2L overexpressed with Smyd1: 25 fold above basal level
B1: Myc-tagged Smyd1 (SET and MYND domain-containing protein 1) (natural protein, mouse, UniProt P97443 1-490, looked up)
chain: MTIGSMENVEVFTSEGKGRGLKATKEFWAADVIFAERAYSAVVFDSLINFVCHTCFKRQEKLHRCGQCKFAHYCDRTCQKDAWLNHKNECAAIKKYGKVPNENIRLAARIMWRVEREGTGLTEGCLVSVDDLQNHVEHFGEEEQKELRVDVDTFLQYWPPQSQQFSMQYISHIFGVINCNGFTLSDQRGLQAVGVGIFPNLGLVNHDCWPNCTVIFNNGNHEAVKSMFHTQMRIELRALGKISEGEELTVSYIDFLHLSEERRRQLKKQYYFDCSCEHCQKGLKDDLFLAAKEDPKPSQEVVKEMIQFSKDTLEKIDKARSEGLYHEVVKLCRECLEKQEPVFADTNLYVLRLLSIASEVLSYLQAYEEASHYARRMVDGYMKLYHHNNAQLGMAVMRAGLTNWHAGHIEVGHGMICKAYAILLVTHGPSHPITKDLEAMRMQTEMELRMFRQNEFMYHKMREAALNNQPMQVMAEPSNEPAPALFHKKQ
